Measured values: patent KR20140095558A (dated 2014)

Target: T1, BSA (bovine serum albumin) (bovine (송아지 혈청 알부민), UniProt P02769 25-607)
T1 construct: Negative control antigen of the phage ELISA; also called 송아지 혈청 알부민
Assay: phage ELISA, 1% BSA coated, anti-M13 peroxidase, OD 492 nm

T1 sequence (P02769 25-607 limits assumed): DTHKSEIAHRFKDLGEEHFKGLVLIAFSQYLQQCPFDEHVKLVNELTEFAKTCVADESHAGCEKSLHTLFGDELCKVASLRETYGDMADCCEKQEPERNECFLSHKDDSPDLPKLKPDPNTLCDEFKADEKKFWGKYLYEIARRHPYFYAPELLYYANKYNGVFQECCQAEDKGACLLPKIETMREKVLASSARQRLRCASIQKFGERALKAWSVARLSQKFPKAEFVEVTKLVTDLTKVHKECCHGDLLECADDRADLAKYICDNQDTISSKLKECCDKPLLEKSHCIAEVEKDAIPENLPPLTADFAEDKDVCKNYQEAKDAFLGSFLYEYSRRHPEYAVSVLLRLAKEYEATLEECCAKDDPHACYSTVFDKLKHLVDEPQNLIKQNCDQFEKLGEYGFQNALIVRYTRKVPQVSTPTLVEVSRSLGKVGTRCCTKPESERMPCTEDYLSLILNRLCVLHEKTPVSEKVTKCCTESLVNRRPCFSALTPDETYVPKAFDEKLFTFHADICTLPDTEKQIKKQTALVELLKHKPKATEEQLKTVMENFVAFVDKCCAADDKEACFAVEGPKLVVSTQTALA

B1: SC05-179 (scFv)
scFv: EVQLVESGGGLVKPGGSLGLSCAASGFFFSDYSMSWIRQAPGKGLEWLSNISGSGHSTKYAESMRGRITISRDNAKKSLSLQLNSLRAEDTAVYFCVRGGGYRMDVWGQGTTVTVSSGTGGSGGTGSGTGGSTQSALTQPRSVPGSPGQSVTISCTGTSSDVGGYNYVSWYQQHPGKAPKLMIYDVSKRPSGVPDRFSGSKSGNTASLTVSGLQAEDEADYYCSSYAGSNNFVVFGGGTKLTVL
Q: Does B1 bind?
A: Result: no binding

B2: SC06-043 (scFv)
scFv: EVQLVESGAEVKKPGESLKISCKGSGYSFTSYWIGWVRQMPGKGLEWMGIIYPGDSDTRYSPSFQGQVTISADKSISTAYLQWSSLKASDTAMYYCARRYCSGGTCSDGFDIWGQGTMVTVSSGTGGSGGTGSGTGGSTQSALTQPPSASGSPGQSVTISCTGTSSDVGGYNYVSWYQQHPGKAPKLMIYEVSKRPSGVPDRFSGSKSGNTASLTVSGLQAEDEADYYCSSYAGSNNLVFGGGTKLTVL
Q: Does B2 bind?
A: Result: no binding

B3: SC06-432 (scFv)
scFv: QLQLQESGPGLVKPSQTLSLTCTVSGGSISSGGYYWSWIRQHPGKGLEWIGYIYYSGSTYYNPSLKSRVTISVDTSKNQFSLKLSSVTAADTAVYYCARERILDRMNDYWGQGTLVTVSSGTGGSGGTGSGTGGSTQSVVTQPPSVSGAPGQRVTISCTGSSSNIGAGYDVHWYQQLPGTAPKLLIYGNSNRPSGVPDRFSGSKSGTSASLAITGLQAEDEADYYCQSSDSSLNILFGGGTKLTVL
Q: Does B3 bind?
A: Result: no binding

B4: SC06-049 (scFv)
scFv: QVQLVQSGAEVKKPGESLKISCKGSGYSFTSYWIGWVRQMPGKGLEWMGIIYPGDSDTRYSPSFQGQVTISADKSIGTAYLQWSSLKASDTAMYYCARLFRVRGGHFDSWGQGTLVTVSSGTGGSGGTGSGTGGSTQSALTQPASVSGSPGQSITISCTGTNSDVGGYNYVSWYQQHPGKAPKLLIYDVTNRPSGVSNRFSASKSGNTASLTISGLQAEDEADYYCSSFTSSSTRVFGGGTKLTVL
Q: Does B4 bind?
A: Result: no binding

B5: SC06-016 (scFv)
scFv: QVQLVQSGPEVKKPGASVTVSCKASGYSFSSYGISWVRQAPGQGLEWMGRIIPVGGNTLYSQMFQGRVTMTSDTSTSTVYLELSSLRSEDTAVYFCARDGGRWQFDYWGQGTLVTVSSGTGGSGGTGSGTGGSTDIQLTQSPSSVSASVGDRVTITCRASQGISNWLAWYQQKPGKAPELLIYAASSLQSGVPPRFSGSASGTDFTLTISSLQPEDFATYYCQQSKNFPYTFGQGTKVEIK
Q: Does B5 bind?
A: Result: no binding

B6: SC05-187 (scFv)
scFv: EVQLVQSGAEVKKPGESLKISCKGSGYSFTKYWIGWVRQMPGKGLEWMGIIYPGDSDTRYSPSFQGQVTISADKSISTAYLQWSSLKASDTAMYYCARGSGIATGNSFDSWGQGTLVTVSSGTGGSGGTGSGTGGSTQTVVTQEPSLTVSPGGTVTLTCASSTGAVTSGYYPNWFQQKPGQAPRALIYSTSKKHSWTPARFSGSLLGGRAALTLSGAQPEDEADYYCLLSYGGARVFGGGTKLTVL
Q: Does B6 bind?
A: Result: no binding

B7: SC06-429 (scFv)
scFv: QVQLVQSGAEVKNPGESLKISCKGSGYTFTSYWIGWVRQMPGKGLEWMGSIYPGDSDTRYSPSFQGQVTISVDKSISTAYLQWSSLKASDTAMYYCARQYRAGSTTRFDPWGQGTLVTVSSGTGGSGGTGSGTGGSTDVVMTQSPLSLPVTPGEPASISCRSSQSLRHRNGNNYLDWYLQKPGQSPQLLIYLGSNRASGVPDRFSGSGSGTDFTLKISRVEAEDVGIYYCMQALQTPLTFGGGTKVEIK
Q: Does B7 bind?
A: Result: no binding

B8: SC06-050 (scFv)
scFv: EVQLVESGPEVKKPGASVKVSCEASGYNLDNYGITWVRQAPGQGLEWLGWISAYNAKTEYGQRLQGRVTMTTDTATSTAYLELRSLRSDDTAVYYCARVLGYRGGWYDEGDAFDVWGQGTMVTVSSGTGGSGGTGSGTGGSTDIQLTQSPSFLSASVGDRVTITCRASQGIRSHLAWYQQKAGKAPKLLIYAASTLQSGVPSRFSGSGSGTEFTLTISSLQPDDFAAYYCQQLNTYPITFGQGTRLEIK
notes: also called SC05-050
Q: Does B8 bind?
A: Result: no binding
